Assay results taken from PMC11300593.
Each block holds one substance with its values, some of them ahead of it.

Assays:
Experiment in all cases: dynamic light scattering; DLS at 20 mg/ml, 25 °C, with and without ammonium sulfate; dimer to monomers
[1] = biological target: 12-oxophytodienoate reductase 3 from tomato (SlOPR3), wild type (tomato) (UniProt Q9FEW9)
[2] = biological target: SlOPR3 variant R283E (tomato) (UniProt Q9FEW9)
[3] = biological target: SlOPR3 variant Y364P (tomato) (UniProt Q9FEW9)

stoichiometry N [1]: 2
Substance: 12-oxophytodienoate reductase 3 from tomato (SlOPR3), wild type (from UniProt Q9FEW9 1-396) (enzyme)

stoichiometry N [2]: 2
Substance: SlOPR3 variant R283E (from UniProt Q9FEW9 1-396) (enzyme)

stoichiometry N [3]: 2
Substance: SlOPR3 variant Y364P (from UniProt Q9FEW9 1-396) (enzyme)
